Laboratory results published in patent publication US20240376195A1 (BEIGENE, published 2024).

What was measured:
[1] = biological target: T1, full-length human NKp30 on NK92MI cells (human, UniProt O14931 19-201); test: flow cytometry on live NK92MI cells over-expressing human NKp30, goat anti-human IgG detection
T1 construct: Full-length human NKp30 over-expressed on NK92MI cells; also called huNKp30; native NKp30
T1 sequence: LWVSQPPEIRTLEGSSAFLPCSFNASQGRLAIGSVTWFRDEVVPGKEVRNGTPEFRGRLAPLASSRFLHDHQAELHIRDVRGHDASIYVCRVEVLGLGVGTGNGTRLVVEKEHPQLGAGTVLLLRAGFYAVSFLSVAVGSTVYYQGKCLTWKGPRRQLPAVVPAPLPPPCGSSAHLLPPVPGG
Method: To evaluate the binding activity of anti-NKp30 antibodies to native NKp30 on living cells, NK92MI cells were transfected to over-express human NKp30. Live NK92mi/NKp30 expressing cells were seeded in 96-well plates and were incubated with a serial dilution of anti-NKp30 antibodies. Goat anti-Human IgG was used as secondary antibody to detect antibody binding to the cell surface. EC₅₀ values for dose-dependent binding to human native NKp30 were determined by fitting the dose-response data to the four-parameter logistic model with GraphPad Prism™.

his-tagged human NKp30 [2] = biological target: T2, his-tagged human NKp30 (human, UniProt O14931 19-135); test: SPR, antibody captured on anti-human Fc surface; NKp30 analyte not named in Example 4
T2 construct: Analyte of the SPR assay; not shown: his tag
T2 sequence: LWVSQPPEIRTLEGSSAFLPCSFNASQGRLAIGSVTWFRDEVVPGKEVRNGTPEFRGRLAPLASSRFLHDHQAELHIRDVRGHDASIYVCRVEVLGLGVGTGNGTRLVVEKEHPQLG
Description: (§1) Further engineered versions of humanized monoclonal antibodies were derived from the mutation process described as above and characterized in detail. […] For affinity determination, antibodies were captured by anti-human Fc surface, and used in the affinity assay based on surface plasmon resonance (SPR) technology. All the humanization antibodies shown above were also confirmed for functional activities on primary human immune cells isolated from healthy donors (described in Example 7 below).

his-tagged human NKp30 [3] = biological target: T2, his-tagged human NKp30; test: SPR, antibody captured on anti-human Fc surface
Description: as §1

V117A = biological target: T3, V117A; test: ELISA; 50 ng Nkp30-Fc variant coated, antibody at 20 nM, HRP-linked secondary antibody; signal relative to wild type
T3 construct: single alanine mutant; also called mutant Nkp30-Fc V117A
T3 Fc fusion chain: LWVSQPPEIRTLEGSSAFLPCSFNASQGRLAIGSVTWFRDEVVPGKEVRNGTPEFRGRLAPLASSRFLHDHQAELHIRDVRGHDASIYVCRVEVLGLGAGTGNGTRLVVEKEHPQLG
Method: (§2) To characterize the binding epitope of BGA1833, 10 amino acid residues of NKp30 were mutated to alanine individually to generate 10 single-mutation NKp30 variants based upon the information from the crystal structure of NKp30 reported previously (Li et al., J Exp Med. 2011 208:703-714). The mutant NKp30 proteins along with the wild-type NKp30 protein were analyzed for their recognition and binding by BGA1833. Another humanized anti-NKp30 antibody, BGA1913, was also analyzed in the same ELISA assay for comparison. In this assay, 50 ng each of wild-type or mutant Nkp30-Fc was coated in an ELISA plate. After blocking, 100 μl of BGA1833 or BGA1913 antibody at a concentration of 20 nM was added to the plate and the binding signal of each antibody was detected by HRP-linked secondary antibody. All ELISA results were normalized using the mean values of the ELISA reading of wild type NKp30-Fc binding signal as the standard. To simplify data analysis, if an antibody's ELISA binding signal for a specific mutant NKp30 dropped to or below 25%, then the amino acid at that site was considered critical to the epitope.

E111A = biological target: T4, E111A; test: as above
T4 construct: single alanine mutant; also called mutant Nkp30-Fc E111A
T4 Fc fusion chain: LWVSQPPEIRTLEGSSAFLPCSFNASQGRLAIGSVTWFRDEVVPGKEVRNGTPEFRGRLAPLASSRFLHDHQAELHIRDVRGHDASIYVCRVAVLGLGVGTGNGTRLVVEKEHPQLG
Method: as §2

R109A = biological target: T5, R109A; test: as above
T5 construct: single alanine mutant; also called mutant Nkp30-Fc R109A
T5 Fc fusion chain: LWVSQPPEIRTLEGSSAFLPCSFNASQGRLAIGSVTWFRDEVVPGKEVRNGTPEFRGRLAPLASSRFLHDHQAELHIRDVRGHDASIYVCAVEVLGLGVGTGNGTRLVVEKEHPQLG
Method: as §2

S52A = biological target: T6, S52A; test: as above
T6 construct: single alanine mutant; also called mutant Nkp30-Fc S52A
T6 Fc fusion chain: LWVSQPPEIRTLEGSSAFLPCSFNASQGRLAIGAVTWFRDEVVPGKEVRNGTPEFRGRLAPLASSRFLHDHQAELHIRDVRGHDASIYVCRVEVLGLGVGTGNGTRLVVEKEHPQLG
Method: as §2

T119A = biological target: T7, T119A; test: as above
T7 construct: single alanine mutant; also called mutant Nkp30-Fc T119A
T7 Fc fusion chain: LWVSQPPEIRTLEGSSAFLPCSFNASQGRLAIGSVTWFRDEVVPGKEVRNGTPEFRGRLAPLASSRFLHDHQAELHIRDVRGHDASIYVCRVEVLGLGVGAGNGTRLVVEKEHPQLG
Method: as §2

K129A = biological target: T8, K129A; test: as above
T8 construct: single alanine mutant; also called mutant Nkp30-Fc K129A
T8 Fc fusion chain: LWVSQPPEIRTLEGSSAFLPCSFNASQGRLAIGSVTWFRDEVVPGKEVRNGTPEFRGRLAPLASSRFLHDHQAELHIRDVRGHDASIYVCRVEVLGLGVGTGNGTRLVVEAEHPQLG
Method: as §2

E65A = biological target: T9, E65A; test: as above
T9 construct: single alanine mutant; also called mutant Nkp30-Fc E65A
T9 Fc fusion chain: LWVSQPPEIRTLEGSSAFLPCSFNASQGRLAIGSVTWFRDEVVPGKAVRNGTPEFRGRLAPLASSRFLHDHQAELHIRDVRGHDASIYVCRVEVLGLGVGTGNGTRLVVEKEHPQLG
Method: as §2

W20A = biological target: T10, W20A; test: as above
T10 construct: single alanine mutant; also called mutant Nkp30-Fc W20A
T10 Fc fusion chain: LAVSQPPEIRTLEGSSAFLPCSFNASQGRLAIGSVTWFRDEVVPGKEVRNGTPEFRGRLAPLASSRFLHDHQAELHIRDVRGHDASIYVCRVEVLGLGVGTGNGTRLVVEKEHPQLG
Method: as §2

B1: BGA1833 (antibody, human IgG1, kappa)
heavy: QVQLVQSGAEVKKPGASVKVSCKASGYTFTSSYMHWVRQAPGQGLEWMGEIHPNRDNTNYNEKFKGRVTMTRDTSTSTVYMELSSLRSEDTAVYYCARSYYEYGGAYFDAWGQGTLVTVSSASTKGPSVFPLAPSSKSTSGGTAALGCLVKDYFPEPVTVSWNSGALTSGVHTFPAVLQSSGLYSLSSVVTVPSSSLGTQTYICNVNHKPSNTKVDKKVEPKSCDKTHTCPPCPAPPAAGPSVFLFPPKPKDTLMISRTPEVTCVVVDVSHEDPEVKFNWYVDGVEVHNAKTKPREEQYNSTYRVVSVLTVLHQDWLNGKEYKCKVSNKALAAPIEKTISKAKGQPREPQVYTLPPSRDELTKNQVSLTCLVKGFYPSDIAVEWESNGQPENNYKTTPPVLDSDGSFFLYSKLTVDKSRWQQGNVFSCSVMHEALHNHYTQKSLSLSPGK
light: QIQLTQSPSSLSASVGDRVTITCKASQDVSTAVAWYQQKPGKAPKLLIYAASYRHIGVPSRFSGSGSGTDFTLTISSLQPEDFATYYCQQHYSNPFTFGGGTKVEIKRTVAAPSVFIFPPSDEQLKSGTASVVCLLNNFYPREAKVQWKVDNALQSGNSQESVTEQDSKDSTYSLSSTLTLSKADYEKHKVYACEVTHQGLSSPVTKSFNRGEC
notes: also called BGA1833 (IgG1mf format)
An EC50 [1] of 1.31 nM, a Kd (his-tagged human NKp30 [2]) of 1.92 nM and a koff (his-tagged human NKp30 [2]) of 0.00278 s⁻¹ were found for B1 in this work. For the same binder, the kon (his-tagged human NKp30 [2]) was 1.45e+06 M⁻¹ s⁻¹, the “fold lower affinity than the initial antibody” value (his-tagged human NKp30 [3]) was ~10 fold and the binding result (V117A) was “binds”. B1: binds (E111A); binds (R109A); binds (S52A). B1: binds (T119A); binds (K129A); binds (E65A). B1: binds (W20A).
